Laboratory results: ChEMBL document CHEMBL5108047

What was measured:
[1] = system: CN(C(=S)Cn1nc2c(c1C(F)(F)F)CCC2)c1ccccc1; details: Homo sapiens; dose 2.5 nM
Description: Inhibition of human DNA polymerase theta assessed as substrate Vmax using dNTP as substrate at 2.5 nM

[2] = system: CN(C(=S)Cn1nc2c(c1C(F)(F)F)CCC2)c1ccccc1; details: Homo sapiens; dose 5.0 nM
Description: Inhibition of human DNA polymerase theta assessed as substrate Vmax using dNTP as substrate at 5 nM

[3] = system: CN(C(=S)Cn1nc2c(c1C(F)(F)F)CCC2)c1ccccc1; details: Homo sapiens; dose 10.0 nM
[4] = system: CN(C(=S)Cn1nc2c(c1C(F)(F)F)CCC2)c1ccccc1; details: Homo sapiens; dose 20.0 nM
[5] = system: CN(C(=S)Cn1nc2c(c1C(F)(F)F)CCC2)c1ccccc1; details: Homo sapiens; dose 30.0 nM
Description: Inhibition of human DNA polymerase theta assessed as substrate Vmax using dNTP as substrate at 30 nM

[6] = system: CN(C(=S)Cn1nc2c(c1C(F)(F)F)CCC2)c1ccccc1; details: Homo sapiens; dose 40.0 nM
[7] = system: CN(C(=S)Cn1nc2c(c1C(F)(F)F)CCC2)c1ccccc1; details: Homo sapiens; dose 2.5 nM; remark: listed apart in the source
Description: Inhibition of human DNA polymerase theta assessed as substrate Km using dNTP as substrate at 2.5 nM

[8] = system: CN(C(=S)Cn1nc2c(c1C(F)(F)F)CCC2)c1ccccc1; details: Homo sapiens; dose 5.0 nM; remark: listed apart in the source
Description: Inhibition of human DNA polymerase theta assessed as substrate Km using dNTP as substrate at 5 nM

[9] = system: CN(C(=S)Cn1nc2c(c1C(F)(F)F)CCC2)c1ccccc1; details: Homo sapiens; dose 10.0 nM; remark: listed apart in the source
[10] = system: CN(C(=S)Cn1nc2c(c1C(F)(F)F)CCC2)c1ccccc1; details: Homo sapiens; dose 20.0 nM; remark: listed apart in the source
[11] = system: CN(C(=S)Cn1nc2c(c1C(F)(F)F)CCC2)c1ccccc1; details: Homo sapiens; dose 30.0 nM; remark: listed apart in the source
Description: Inhibition of human DNA polymerase theta assessed as substrate Km using dNTP as substrate at 30 nM

[12] = system: CN(C(=S)Cn1nc2c(c1C(F)(F)F)CCC2)c1ccccc1; details: Homo sapiens; dose 40.0 nM; remark: listed apart in the source

## DNA polymerase theta (Homo sapiens), O75417
[1]
  Vmax: 51.2 µM/min
[2]
  Vmax: 51.3 µM/min
[3]
  Vmax: 25.5 µM/min
[4]
  Vmax: 21.8 µM/min
[5]
  Vmax: 15.2 µM/min
[6]
  Vmax: 6.45 µM/min
[7]
  Km: 25.2 µM
[8]
  Km: 36.6 µM
[9]
  Km: 24 µM
[10]
  Km: 57 µM
[11]
  Km: 112 µM
[12]
  Km: 39.5 µM
